Test results taken from PMC6353875 (2019).

Target: EZH2 SRM-SANT1 (residues 141–251) (human, UniProt Q15910 141-251)
Assay: NMR

Chain of EZH2 SRM-SANT1 (residues 141–251) (Q15910 141-251): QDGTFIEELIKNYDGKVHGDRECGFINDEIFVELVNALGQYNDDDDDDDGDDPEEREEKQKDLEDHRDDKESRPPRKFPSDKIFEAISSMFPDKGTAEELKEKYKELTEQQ

Kd: > 5 mM
B1: unmodified histone H2B peptide (residues 1–11) (peptide)
peptide: PEPAKSAPAPK
